Assay results as given in the supplement of paper PMC11865577.

Key:
Experiment in all cases: pull-down binding Z-score (relative to library population); higher = stronger binding
[1] = test system: G-clamp-N3 (biotin conjugate); details: RNA library: Library-1 (pre-miRNA loops + repeats)
Outline: (§1)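 An RNA library (1 μg) carrying a Cy5 or Cy3 end label was heat-folded in phosphate/NaCl/KCl buffer, then incubated for 60 min at 25 °C with streptavidin beads loaded with 100 pmol of biotin-conjugated small molecule. The beads were washed three times, and bound RNA was released in hot SDS and hybridised to a DNA barcode microarray for 20 h at 55.5 °C. Each binding score was derived by subtracting the signal from beads without compound, averaging the barcoded replicate probes after removing the highest and lowest, and expressing the result as a Z-score relative to the library mean and standard deviation.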

[2] = test system: TO-3-N3 (biotin conjugate); details: RNA library: Library-2
Outline: as §1

[3] = test system: TO-3-N3-2 (biotin conjugate); details: RNA library: Library-2
Outline: as §1

[4] = test system: TO-N3 (biotin conjugate); details: RNA library: Library-2
Outline: as §1

[5] = test system: TO-N3-2 (biotin conjugate); details: RNA library: Library-2
Outline: as §1

Row | Sequence | pull-down binding Z-score [1] | pull-down binding Z-score [2] | pull-down binding Z-score [3] | pull-down binding Z-score [4] | pull-down binding Z-score [5]
1 | UGCUCCUUGAACAGGAGGAGCA [hsa-mir-4708] | 1.09 | -0.48 | -0.405 | -0.683 | -0.535
2 | UAUUCUGAUGUCCAAGUGGAAA [hsa-mir-372] | -0.198 | -0.733 | -0.345 | -0.772 | -0.504
3 | GGAGGGUGAGCUUUCUGAAAACCCCUCC [hsa-mir-188] | 0.536 | 0.345 | 0.358 | 0.328 | -0.0757
4 | GGUUGCUGGAGGUCAGC [hsa-mir-6871] | 0.0274 | 0.155 | 0.233 | 0.489 | 0.785
5 | GUGAACCUGAAUUUGCCUUGGGUUUCCU [hsa-mir-670] | -0.325 | -0.509 | -0.132 | 0.262 | 1.76
6 | UUUACCAUUACUUUCAAUGGCAAA [hsa-mir-548a-3] | -0.644 | -1.16 | -0.786 | -1.76 | -1.82
7 | UAGGAGCUGUGCCUCCUGGCCUAUUCCUGUUCGUG [hsa-mir-8056] | 0.294 | -0.344 | -0.167 | 0.0941 | 0.623
8 | CAUACAUAUGCCUACUACUACUUUCAUAUGUAGGCAUAUGUAUG [hsa-mir-7852] | -0.626 | -0.502 | -0.144 | -0.8 | -0.89
9 | GAUGUUUCUGCCAGUUUAGCGUC [hsa-mir-505] | -0.68 | 0.0284 | -0.0968 | 0.0886 | 0.324
10 | CUCACAUGGAGUAAAAUAUGAU [hsa-mir-3134] | -1.71 | 0.744 | 0.194 | 0.711 | 0.206
11 | AUGUUCACUUGAUUAAUGGCGAAUAU [hsa-mir-1185-2_1185-1] | 0.337 | -0.629 | -0.39 | -0.89 | -0.673
12 | UUUAGUAUGCCACAUUUCUAAA [hsa-mir-4282] | -1.54 | -0.601 | -0.374 | -0.757 | -0.699
13 | GAUGUAUCCAAGUACCCUGUGUUAUUUGGCAAUAAAUACAUC [hsa-mir-1298] | -1.2 | -0.204 | -0.361 | -1.27 | -0.35
14 | CCAUAAGCUGUCUAAAACUUCG [hsa-mir-4513] | -1.21 | -0.354 | -0.153 | -0.327 | -0.0485
15 | UUUGCCAUUAAAAGUAACGACAAA [hsa-mir-548a-1] | -0.965 | -0.873 | -0.389 | -1.11 | -0.81
16 | CUUUUGGAAAAUAGAAAAG [hsa-mir-3184] | 1.56 | -0.24 | 0.161 | -0.433 | -0.0491
17 | UUGUCUCCUCAAGUUGCGACGAGACAG [hsa-mir-4645] | -1.13 | -0.254 | -0.451 | -0.358 | -0.585
18 | CAAUAGUAAAAAGACAACCUGUUG [hsa-mir-3133] | 0.427 | -0.559 | 0.0706 | -0.651 | -0.486
19 | CUGGGGUUGGAAUGUGACCCCA [hsa-mir-4654] | -0.709 | 0.425 | -0.171 | 0.541 | 0.687
20 | CUGAAAAUACAAAAUGGAAAAUUCCAG [hsa-mir-4494] | -1.38 | -0.0909 | 0.256 | -0.0822 | -0.365

Row | Sequence | pull-down binding Z-score [1] | pull-down binding Z-score [2] | pull-down binding Z-score [3] | pull-down binding Z-score [4] | pull-down binding Z-score [5]
21 | AUCAUCUCUCCCUUGGAU [hsa-mir-3683] | 1.39 | -0.626 | -0.257 | -0.733 | -0.446
22 | GGAGGCACUGCCAGGGCUGCCCAC [hsa-mir-1202] | -0.43 | 0.521 | 0.277 | 1.21 | 2.09
23 | CCUGUUUUACAAAUAAGGAAAUAAACUCAGG [hsa-mir-1321] | -1.01 | -0.59 | -0.326 | -0.94 | -1.08
24 | UUUGCCAGAGCUACAAAGGCAAA [hsa-mir-561] | 0.627 | -0.527 | -0.521 | -0.845 | -0.512
25 | UGUGUGUACUCACAGCCCCUCACACA [hsa-mir-942] | -0.624 | -0.301 | -0.262 | -0.432 | -0.11
26 | CCCACGGCCCUUGUCAGUGUG [hsa-mir-3190] | -1.69 | 0.791 | -0.14 | 0.809 | 0.517
27 | CCGUUUAAAAAGGCAUCUCCAAG [hsa-mir-608] | -1.45 | 0.0622 | 0.433 | 0.0887 | 0.0602
28 | UUCAUUUUAUUUAUGAUGAG [hsa-mir-496] | 1.12 | -0.959 | -0.288 | -1.2 | -1.33
29 | GAUAUGCCAUUAUGUGGGUCAUGAGGUGGUGA [hsa-mir-6864] | 0.225 | 0.197 | 0.416 | 0.738 | 1.54
30 | CUGUUUGUUGUCUGAGAAAAAACA [hsa-mir-520g_520h] | 1.11 | -0.638 | -0.125 | -0.598 | -0.229
31 | GCCCGGGCACCGCCCCUU [hsa-mir-718] | -1.53 | -0.0729 | -0.109 | 0.203 | 0.973
32 | GGGACAUUGCGGAGAGGGUCUCACAUUGUCCC [hsa-mir-4646] | 0.248 | 0.894 | 0.999 | 0.925 | 0.488
33 | GCCGCGGAAGAAGGGGAAGCGC [hsa-mir-6720] | 2.21 | 1.46 | 0.61 | 1.61 | 1.86
34 | AUUAUGUUUUGGACAUAGAAACAUAAC [hsa-mir-5688] | -0.841 | -0.878 | -0.377 | -0.981 | -0.665
35 | UUGGCGUUAAGAUUCUAAAAUUAUCUCCAG [hsa-mir-16-1] | -1.03 | -0.825 | -0.307 | -0.952 | -0.642
36 | GAGACUUAGAAAUCCCUAAGUCUC [hsa-mir-3921] | 0.443 | -0.258 | -0.246 | -0.761 | -0.875
37 | UCAGCUGUAAUACAUGGAUUGGCUGG [hsa-mir-30b] | 0.592 | -0.368 | -0.198 | -0.379 | -0.252
38 | CAGACGGCUUUCUCUCCGAAUGUCUG [hsa-mir-2276] | -0.958 | -0.908 | -0.376 | -1.12 | -0.639
39 | UGAGACCUGGUGCAGAACGGGAAGGCGA [hsa-mir-551b] | 1.4 | 0.308 | 0.479 | 1.23 | 1.76
40 | CAGCCCUGCACUGAAC [hsa-mir-614] | -1.84 | 0.285 | 0.00113 | 0.941 | 1.39

Row | Sequence | pull-down binding Z-score [1] | pull-down binding Z-score [2] | pull-down binding Z-score [3] | pull-down binding Z-score [4] | pull-down binding Z-score [5]
41 | CUUUCUGUUGUCUGAGAGAAAAGAAAG [hsa-mir-520a] | 0.6 | -0.684 | -0.385 | -0.74 | -0.553
42 | CUCGCUGGGAGGUGUGCUAUCGUCUUCCCUGGGAG [hsa-mir-3689d-2] | -0.351 | 0.157 | -0.246 | 0.338 | 0.541
43 | UUCAGAUUUUGGAACAUUUCGGAUUUUGGA [hsa-mir-1290] | 2.01 | -0.172 | -0.35 | -0.297 | -1.15
44 | CUAUUCAGAAAUGUGGCCUGUGAUUAG [hsa-mir-1295a] | 0.22 | -0.00311 | 0.231 | -0.0755 | 0.169
45 | GUGCAGCUUGUACCUGCAC [hsa-mir-1293] | -0.00619 | -0.154 | -0.574 | -0.0262 | -0.592
46 | GAAGGAAGGCAAGGCUGUCUGUCCAUC [hsa-mir-4800] | -1.01 | 0.852 | 0.513 | 1.03 | 0.685
47 | UAAUGCUCUGAAAAUGACUCCAAUCAUUA [hsa-mir-3202-2] | -1.64 | -0.685 | -0.069 | -0.741 | -0.457
48 | AUGCCUGAGAAUAUAUGAAGGAGGCU [hsa-mir-204] | 2.31 | 0.0552 | 0.374 | 0.525 | 0.965
49 | GGACGUCACCACCAUGGCC [hsa-mir-650] | -1.19 | 0.0495 | 0.247 | 0.232 | 0.358
50 | AUGGGGCAGCUGGGAUGGUCCAAAAGGGUGGCCUCA [hsa-mir-1226] | 1.14 | 0.729 | 0.406 | 1.05 | 1.17
51 | UUGCUUAAG [hsa-mir-924] | -0.513 | 0.586 | -0.269 | 0.3 | -0.696
52 | CUUAAGUGGUUCGGGUAAAUCACUUUAA [hsa-mir-3977] | -1.04 | -0.623 | -0.186 | -0.623 | -0.585
53 | CCAAAUCAGAAAAGGAUUUGG [hsa-mir-4520-1] | 4.83 | -0.497 | -0.242 | -0.698 | -0.892
54 | CUUUGUCUGACUACAAUAUUCAAAAG [hsa-mir-4426] | -1.96 | 0.0486 | 0.0275 | -0.0832 | -0.569
55 | AAGUAAUUGUUUCUAAUGUACU [hsa-mir-412] | 0.96 | -0.549 | 0.0532 | 0.00941 | 0.583
56 | GCCGGGGCCUGGCGCUCCUCUACCUUGUCAGGUGACCCAGC [hsa-mir-4274] | -1.05 | 0.564 | -0.179 | 0.538 | 0.434
57 | CUGGGUUCGGCUGCUACCCCAAA [hsa-mir-6768] | -1.38 | 0.179 | 0.195 | 0.563 | 0.742
58 | GGAGAAGACUUUUCCUUUCCUCC [hsa-mir-4660] | -0.415 | -0.1 | -0.212 | -0.139 | -0.545
